# Measured values as given in US20240189351A1 (US Dept. of Health and Human Services, published 2024).
# T1: recombinant human IL-13Rα2Fc chimera protein (R&D) (human, UniProt Q14627 27-343, biotinylated (sulfo-NHS-biotin) in the immunofluorescence assay only)
# T1 construct: Bought protein (R&D); It was used biotinylated in the IFA and unlabelled in the migration assay; also called huIL-13Rα2Fc chimeric protein; HuIL-13Rα2Fc; Fc part of the bought chimera not given
# T1 sequence (looked up): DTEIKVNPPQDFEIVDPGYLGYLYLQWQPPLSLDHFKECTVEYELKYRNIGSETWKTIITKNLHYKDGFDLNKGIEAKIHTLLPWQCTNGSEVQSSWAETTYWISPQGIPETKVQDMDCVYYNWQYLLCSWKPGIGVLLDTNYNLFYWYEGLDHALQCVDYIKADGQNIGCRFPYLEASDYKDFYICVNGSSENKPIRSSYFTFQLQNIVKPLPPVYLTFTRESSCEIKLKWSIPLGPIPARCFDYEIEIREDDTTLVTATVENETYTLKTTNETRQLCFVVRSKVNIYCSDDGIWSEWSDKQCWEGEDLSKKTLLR
# Biological target: T1, recombinant human IL-13Rα2Fc chimera …
# Experiment: method not stated; affinity for recombinant IL-13Rα2Fc compared with the previously cloned scFv
binder,measurement,value
"IL-13Rα2 scFv (improved scFv-IL-13Rα2) (scFv, also called clone derived protein) scFv: QVQLVQSGAEVKKPGASVKVSCKASGYTFTSYAMHWVRQAPGQRLEWMGWINAGNGNTKYSQKFQGRVTITRDTSASTAYMELSSLRSEDTAVYYCARMNHMIPLKAWGQGTLVTVSSGGGGSGGGGSGGSALAIQMTQSPSSLSASVGDRVTITCRASQGIRNDLGWYQQKPGKAPKLLIYAASSLQSGVPSRFSGSGSGTDFTLTISSLQPEDFATYYCLQMYNYRTFGQGTKLEIKRA",fold higher binding affinity compared to the previously cloned scFv ECD-IL-13Rα2 (Kioi et al. 2008),> 4 fold
